Enrichment data for 74 variants are collected here from paper PMC10244618.

Sequences and labels used below:
B1: NF2 (merlin) isoform 7, human, full length (507 aa, lacks exons 2-3 = isoform-1 residues 39-121; exon-16 C-terminus), P35240-4 (parent)
chain: MAGAIASRMSFSSLKRKQPKTFTVRIVTMDAEMEFNCEVKKQILDEKIYCPPEASVLLASYAVQAKYGDYDPSVHKRGFLAQEELLPKRVINLYQMTPEMWEERITAWYAEHRGRARDEAEMEYLKIAQDLEMYGVNYFAIRNKKGTELLLGVDALGLHIYDPENRLTPKISFPWNEIRNISYSDKEFTIKPLDKKIDVFKFNSSKLRVNKLILQLCIGNHDLFMRRRKADSLEVQQMKAQAREEKARKQMERQRLAREKQMREEAERTRDELERRLLQMKEEATMANEALMRSEETADLLAEKAQITEEEAKLLAQKAAEAEQEMQRIKATAIRTEEEKRLMEQKVLEAEVLALKMAEESERRAKEADQLKQDLQEAREAERRAKQKLLEIATKPTYPPMNPIPAPLPPDIPSFNLIGDSLSFDFKDTDMKRLSMEIEKEKVEYMEKSKHLQEQLNELKTEIEALKLKERETALDILHNENSDRGGSSKHNTIKKPQAQGRRPICI

Values joined by “and” are separate entries in the source; they are usually repeats but may differ in a detail not shown here. Equal entries are not always repeated.

In one experiment the parent is B1. In words: reverse yeast two-hybrid deep mutational scan (rY2H-seq): NF2 isoform 7 mutant library as bait mated with wild-type prey strains; selection on medium lacking adenine for non-interacting pairs; NextSeq paired-end sequencing; enrichment vs …. The conditions noted are these: with EMILIN1 (elastin microfibril interfacer 1), Q9Y6C2; yeast diploids after mating (RBait_S3 x RPrey_S3), 30 °C, selection for reporter genes on NB agar; human tyrosine kinase ABL2 co-expressed as the active kinase …; HIGHER = WEAKER BINDING (the opposite of display enrichments): higher = stronger loss of interaction: reverse Y2H selects yeast in which bait and prey do NOT interact (growth without adenine), so a …; hits-only table; scale: rY2H score; numbering: uniprot, sequence starts at 1. Background: Reporter assays use an easily measured gene product as a stand-in for the process of interest.
In the case of R328T, the enrichment came to 2.61. On the same count and under the same terms, with A393K the figure was 1.55.

Take S55L: the enrichment came to 2.05. In the case of R166N, the enrichment came out at 2.2. In the case of R166S, the enrichment is 8.73. For L348K, the enrichment was 2.78. In the case of R363E, the enrichment is 3.15. The same measure, in the same setting: in the case of I141L it was 7.65. Still for that read-out and setting: with W175E the figure was 6.77. Take W175A: the enrichment is 4.36. On the same count and under the same terms, with E464L the figure was 1.85; with L300K, 8.53; with L300C, 2.3. Same read-out and setting: in the case of L300R it was 3.24. In the case of N402Q, the enrichment was 2.62. With E282L, the enrichment was found to be 3.15. On the same count and under the same terms, with T461I the figure was 1.49; with F79A, 4.71.

E382A: the enrichment was determined as 1.65. The same measure, in the same setting: with D476V the figure was 5.43; with S60F, 3.78. Same read-out and setting: with K395Q the figure was 1.8; with P399R, 2.33. Same read-out and setting: in the case of P399K it was 1.52; in that of F173S, 1.69. A266K: the enrichment is 9.16.

As to D69K, the enrichment worked out at 1.87.

Consider P174R, for which the enrichment is 4.14. Take S483E: the enrichment was 1.84.

As for R248P, the enrichment came out at 1.52. Same read-out and setting: with R248K the figure was 1.55. Same read-out and setting: with G419L the figure was 2.72; with M326R, 1.39; with T285L, 2.39 and 4.

Turning to A350E, the enrichment is 5.83. On the same count and under the same terms, in the case of A128V it was 1.56; in that of Q306E, 8.86.

As for N480A, the enrichment was determined as 1.73.

Turning to T189I, the enrichment is 1.59. The same measure, in the same setting: with N416T the figure was 2.76; with N416R, 3.29; with N416A, 6.7. On the same count and under the same terms, with S294K the figure was 4.59 and 3.72.

The experiment is the same for the next values; noted with them: with KDM1A (lysine-specific histone demethylase 1A; the table's label AOF2 is a gene synonym of KDM1A), O60341; yeast diploids after mating (RBait_S3 x RPrey_S3), 30 °C, selection for reporter genes on NB agar; human ABL2 co-expressed as the kinase-dead K35M mutant …; HIGHER = WEAKER BINDING (the opposite of display enrichments): higher = stronger loss of interaction: reverse Y2H selects yeast in which bait and prey do NOT interact (growth without adenine), so a …; hits-only table; scale: rY2H score; numbering: uniprot, sequence starts at 1.
Take R328P: the enrichment is 1.53. On the same count and under the same terms, in the case of Q500L it was 19.6.

Turning to E351K, the enrichment is 1.66 and 2.35. In the case of A393L, the enrichment turned out to be 1.9. Take M122A: the enrichment came to 3.3. The same measure, in the same setting: with R166G the figure was 1.77. In the case of R166E, the enrichment was 1.81. Same read-out and setting: with L348K the figure was 3.09; with R363G, 1.89. The same measure, in the same setting: in the case of L417E it was 2.45.

Regarding E472A, the enrichment is 3.64.

L300P: the enrichment is 4.3. Still for that read-out and setting: with G501C the figure was 1.59; with I392E, 3.78.

As to E282K, the enrichment was 1.54. As to P504R, the enrichment amounted to 2.

In the case of N492E, the enrichment was 1.69. Still for that read-out and setting: with R25E the figure was 3.64 and 8.74; with E382A, 2.37; with K15E, 3.69.

For the variant D476E, the enrichment came out at 2.39.

Take S361P: the enrichment is 2. Same read-out and setting: in the case of S361A it was 5; in that of F173S, 3.95. Still for that read-out and setting: in the case of E34A it was 1.5; in that of R384E, 2.89. The same measure, in the same setting: with R248C the figure was 1.52; with Q250D, 1.46. As for Q250L, the enrichment is 2.08. Regarding I160C, the enrichment was 1.87. S414L: the enrichment worked out at 3.17. The same measure, in the same setting: with S414E the figure was 1.73; with L167A, 1.67. Same read-out and setting: with L167E the figure was 2.5.

Still in this experiment, the particulars now being: with NF2 C-terminal domain (wild type; homomeric NF2-NF2 interaction), P35240; yeast diploids after mating (RBait_S3 x RPrey_S3), 30 °C, selection for reporter genes on NB agar; human ABL2 co-expressed as the kinase-dead K35M mutant …; HIGHER = WEAKER BINDING (the opposite of display enrichments): higher = stronger loss of interaction: reverse Y2H selects yeast in which bait and prey do NOT interact (growth without adenine), so a …; hits-only table; partner unresolved; scale: rY2H score; numbering: uniprot, sequence starts at 1.
As to E351K, the enrichment was 2.95 and 2.99. As to M122A, the enrichment stood at 2.37. Turning to W175E, the enrichment was found to be 1.97. On the same count and under the same terms, in the case of W175A it was 2.08; in that of L300C, 2.18.

Regarding E382A, the enrichment was found to be 2.83. For P174R, the enrichment amounted to 4.82. On the same count and under the same terms, with A128V the figure was 1.47; with L167E, 4.14 and 3.2.

In the case of S294K, the enrichment was 4.08.

Still in this experiment, the particulars now being: with PIK3R3 (phosphatidylinositol 3-kinase regulatory subunit gamma), Q92569; yeast diploids after mating (RBait_S3 x RPrey_S3), 30 °C, selection for reporter genes on NB agar; human tyrosine kinase ABL2 co-expressed as the active kinase …; HIGHER = WEAKER BINDING (the opposite of display enrichments): higher = stronger loss of interaction: reverse Y2H selects yeast in which bait and prey do NOT interact (growth without adenine), so a …; hits-only table; scale: rY2H score; numbering: uniprot, sequence starts at 1.
A393K: the enrichment worked out at 3.14. For the variant R166G, the enrichment was found to be 1.44.

For the variant R166E, the enrichment was 1.52. The same measure, in the same setting: in the case of R363E it was 4.76; in that of L417E, 2.19. Same read-out and setting: with G501C the figure was 1.45; with E382A, 3 and 1.89.

As to S361P, the enrichment was determined as 3.03. On the same count and under the same terms, in the case of F173S it was 4.73 and 5.14. Consider S483E, for which the enrichment stood at 3.26. Take T285L: the enrichment worked out at 6.05. Regarding I160C, the enrichment was found to be 1.68. For S414L, the enrichment turned out to be 3.79.

Staying with this experiment, now noted: with KDM1A (lysine-specific histone demethylase 1A; the table's label AOF2 is a gene synonym of KDM1A), O60341; yeast diploids after mating (RBait_S3 x RPrey_S3), 30 °C, selection for reporter genes on NB agar; human tyrosine kinase ABL2 co-expressed as the active kinase …; HIGHER = WEAKER BINDING (the opposite of display enrichments): higher = stronger loss of interaction: reverse Y2H selects yeast in which bait and prey do NOT interact (growth without adenine), so a …; hits-only table; scale: rY2H score; numbering: uniprot, sequence starts at 1.
Take R166N: the enrichment turned out to be 1.82.

For R166G, the enrichment stood at 1.84. Regarding L417E, the enrichment turned out to be 3.12. In the case of P504R, the enrichment is 1.85. On the same count and under the same terms, with S361A the figure was 2.29 and 3.4.

For the variant A266K, the enrichment was 2.16. The same measure, in the same setting: with D69K the figure was 6.13; with S483E, 1.8 and 1.81; with Q250D, 1.65.
